The supplement of paper PMC5998384

Key:
[1] = system: HeLa Kyoto; assay: solubility in G1/S (NP-40 vs SDS abundance) (log2 ratio); higher = more soluble; conditions: cell cycle stage: G1/S
[2] = system: HeLa Kyoto; assay: melting temperature (median over replicates), in situ; higher = more thermally stable
[3] = system: HeLa Kyoto; assay: thermal stability score vs G1/S (z-score of summed log2 fold changes over temperatures); higher = more thermally stable than in G1/S
[4] = system: HeLa Kyoto; assay: solubility change mitosis vs G1/S (difference of NP-40 vs SDS log2 ratios) (log2 ratio difference); higher = more soluble in mitosis
[5] = cell cycle stage: early G1 (4.5 h after nocodazole release)
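Throughout, for melting temperature (median over replicates), in situ: HeLa Kyoto cells synchronized by double thymidine or nocodazole block, proteins quantified by TMT10plex mass spectrometry, three independent biological replicates.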
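Throughout, for solubility change mitosis vs G1/S (difference of NP-40 vs SDS log2 ratios): synchronized HeLa Kyoto cells (double thymidine block for G1/S, nocodazole release for mitosis), protein amounts in NP-40 versus SDS lysates quantified by mass spectrometry, three biological replicates.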
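Throughout, for solubility in G1/S (NP-40 vs SDS abundance): HeLa Kyoto cells arrested at G1/S by double thymidine block, proteins quantified by TMT10plex mass spectrometry in mild NP-40 versus SDS extracts, three biological replicates.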
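Throughout, for thermal stability score vs G1/S (z-score of summed log2 fold changes over temperatures): synchronized HeLa Kyoto cells, proteins quantified by TMT10plex mass spectrometry, three biological replicates, mitosis taken 0.5 h after nocodazole release, G1/S directly after double thymidine block.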

| Sequence | solubility in G1/S (log2) [1] | melting temperature ([2]; cell cycle stage: G1/S) [°C] | melting temperature ([2]; cell cycle stage: mitosis) [°C] | thermal stability score [3, 5] | thermal stability score ([3]; cell cycle stage: mitosis) | solubility change mitosis (log2) [4] |
| --- | --- | --- | --- | --- | --- | --- |
| MVFLPLKWSLATMSFLLSSLLALLTVSTPSWCQSTEASPKRSDGTPFPWNKIRLPEYVIPVHYDLLIHANLTTLTFWGTTKVEITASQPTSTIILHSHHLQISRATLRKGAGERLSEEPLQVLEHPRQEQIALLAPEPLLVGLPYTVVIHYAGNLSETFHGFYKSTYRTKEGELRILASTQFEPTAARMAFPCFDEPAFKASFSIKIRREPRHLAISNMPLVKSVTVAEGLIEDHFDVTVKMSTYLVAFIISDFESVSKITKSGVKVSVYAVPDKINQADYALDAAVTLLEFYEDYFSIPYPLPKQDLAAIPDFQSGAMENWGLTTYRESALLFDAEKSSASSKLGITMTVAHELAHQWFGNLVTMEWWNDLWLNEGFAKFMEFVSVSVTHPELKVGDYFFGKCFDAMEVDALNSSHPVSTPVENPAQIREMFDDVSYDKGACILNMLREYLSADAFKSGIVQYLQKHSYKNTKNEDLWDSMASICPTDGVKGMDGFCSRSQHSSSSSHWHQEGVDVKTMMNTWTLQKGFPLITITVRGRNVHMKQEHYMKGSDGAPDTGYLWHVPLTFITSKSDMVHRFLLKTKTDVLILPEEVEWIKFNVGMNGYYIVHYEDDGWDSLTGLLKGTHTAVSSNDRASLINNAFQLVSIGKLSIEKALDLSLYLKHETEIMPVFQGLNELIPMYKLMEKRDMNEVETQFKAFLIRLLRDLIDKQTWTDEGSVSERMLRSQLLLLACVHNYQPCVQRAEGYFRKWKESNGNLSLPVDVTLAVFAVGAQSTEGWDFLYSKYQFSLSSTEKSQIEFALCRTQNKEKLQWLLDESFKGDKIKTQEFPQILTLIGRNPVGYPLAWQFLRKNWNKLVQKFELGSSSIAHMVMGTTNQFSTRTRLEEVKGFFSSLKENGSQLRCVQQTIETIEENIGWMDKNFDKIRVWLQSEKLERM [ERAP1] | 0.0916 | 53.9 | 54.4 | 3.59 | 5.54 | -0.172 |
| MVFPAKRFCLVPSMEGVRWAFSCGTWLPSRAEWLLAVRSIQPEEKERIGQFVFARDAKAAMAGRLMIRKLVAEKLNIPWNHIRLQRTAKGKPVLAKDSSNPYPNFNFNISHQGDYAVLAAEPELQVGIDIMKTSFPGRGSIPEFFHIMKRKFTNKEWETIRSFKDEWTQLDMFYRNWALKESFIKAIGVGLGFELQRLEFDLSPLNLDIGQVYKETRLFLDGEEEKEWAFEESKIDEHHFVAVALRKPDGSRHQDVPSQDDSKPTQRQFTILNFNDLMSSAVPMTPEDPSFWDCFCFTEEIPIRNGTKS [AASDHPPT] | 0.0817 | 52.3 | 52.4 | 0.145 | -0.453 | -0.124 |
| MVFYFTSSSVNSSAYTIYMGKDKYENEDLIKHGWPEDIWFHVDKLSSAHVYLRLHKGENIEDIPKEVLMDCAHLVKANSIQGCKMNNVNVVYTPWSNLKKTADMDVGQIGFHRQKDVKIVTVEKKVNEILNRLEKTKVERFPDLAAEKECRDREERNEKKAQIQEMKKREKEEMKKKREMDELRSYSSLMKVENMSSNQDGNDSDEFM [CCDC25] | 0.0307 | 50.4 | 50.6 | -0.0583 | -0.134 | -0.118 |
| MVGREKELSIHFVPGSCRLVEEEVNIPNRRVLVTGATGLLGRAVHKEFQQNNWHAVGCGFRRARPKFEQVNLLDSNAVHHIIHDFQPHVIVHCAAERRPDVVENQPDAASQLNVDASGNLAKEAAAVGAFLIYISSDYVFDGTNPPYREEDIPAPLNLYGKTKLDGEKAVLENNLGAAVLRIPILYGEVEKLEESAVTVMFDKVQFSNKSANMDHWQQRFPTHVKDVATVCRQLAEKRMLDPSIKGTFHWSGNEQMTKYEMACAIADAFNLPSSHLRPITDSPVLGAQRPRNAQLDCSKLETLGIGQRTPFRIGIKESLWPFLIDKRWRQTVFH [MAT2B] | 0.344 | 55.5 | 56.3 | -0.304 | -1.94 | -0.0436 |
| MVGVKPVGSDPDFQPELSGAGSRLAVVKFTMRGCGPCLRIAPAFSSMSNKYPQAVFLEVDVHQCQGTAATNNISATPTFLFFRNKVRIDQYQGADAVGLEEKIKQHLENDPGSNEDTDIPKGYMDLMPFINKAGCECLNESDEHGFDNCLRKDTTFLESDCDEQLLITVAFNQPVKLYSMKFQGPDNGQGPKYVKIFINLPRSMDFEEAERSEPTQALELTEDDIKEDGIVPLRYVKFQNVNSVTIFVQSNQGEEETTRISYFTFIGTPVQATNMNDFKRVVGKKGESH [TXNL1] | 0.258 | 50.1 | 50.2 | -0.465 | -0.0973 | -0.112 |
